In article PMC2588524 (Nucleic Acids Research, 2008):

Experiments:
[1] = target: T1, C-terminal domain of mouse Dnmt3a (residues 608-908) (mouse, UniProt O88508 608-908); test: co-purification
[2] = target: T1, C-terminal domain of mouse Dnmt3a …; test: AUC

T1 sequence (O88508 608-908): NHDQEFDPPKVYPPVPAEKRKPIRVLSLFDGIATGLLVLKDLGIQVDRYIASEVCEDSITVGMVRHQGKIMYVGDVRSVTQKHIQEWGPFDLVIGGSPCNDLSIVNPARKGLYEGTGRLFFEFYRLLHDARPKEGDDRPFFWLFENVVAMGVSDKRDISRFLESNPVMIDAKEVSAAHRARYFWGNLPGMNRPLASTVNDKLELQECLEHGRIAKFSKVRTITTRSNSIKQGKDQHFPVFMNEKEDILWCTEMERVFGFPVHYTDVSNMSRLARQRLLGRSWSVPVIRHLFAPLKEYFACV

B1: C-terminal domain of mouse Dnmt3L (residues 208-421) (domain or fragment, UniProt Q9CWR8 208-421, looked up)
chain: GPMEIYKTVSAWKRQPVRVLSLFRNIDKVLKSLGFLESGSGSGGGTLKYVEDVTNVVRRDVEKWGPFDLVYGSTQPLGSSCDRCPGWYMFQFHRILQYALPRQESQRPFFWIFMDNLLLTEDDQETTTRFLQTEAVTLQDVRGRDYQNAMRVWSNIPGLKSKHAPLTPKEEEYLQAQVRSRSKLDAPKVDLLVKNCLLPLREYFKYFSQNSLPL
[1]
  stoichiometry N: 1
[2]
  stoichiometry N: 1 2:2 (Dnmt3a-C:Dnmt3L-C)
